Test results taken from the supplement of paper PMC5998384.

What was measured:
HeLa Kyoto [1] = test: solubility change mitosis vs G1/S (difference of NP-40 vs SDS log2 ratios) (log2 ratio difference); higher = more soluble in mitosis
HeLa Kyoto [2] = test: solubility in G1/S (NP-40 vs SDS abundance) (log2 ratio); higher = more soluble; settings: cell cycle stage: G1/S
HeLa Kyoto [3] = test: melting temperature (median over replicates), in situ; higher = more thermally stable
HeLa Kyoto [4] = test: thermal stability score vs G1/S (z-score of summed log2 fold changes over temperatures); higher = more thermally stable than in G1/S
[5] = cell cycle stage: early G1 (4.5 h after nocodazole release)
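Wherever melting temperature (median over replicates), in situ is given: HeLa Kyoto cells synchronized by double thymidine or nocodazole block, proteins quantified by TMT10plex mass spectrometry, three independent biological replicates.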
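Wherever solubility change mitosis vs G1/S (difference of NP-40 vs SDS log2 ratios) is given: synchronized HeLa Kyoto cells (double thymidine block for G1/S, nocodazole release for mitosis), protein amounts in NP-40 versus SDS lysates quantified by mass spectrometry, three biological replicates.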
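Wherever solubility in G1/S (NP-40 vs SDS abundance) is given: HeLa Kyoto cells arrested at G1/S by double thymidine block, proteins quantified by TMT10plex mass spectrometry in mild NP-40 versus SDS extracts, three biological replicates.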
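Wherever thermal stability score vs G1/S (z-score of summed log2 fold changes over temperatures) is given: synchronized HeLa Kyoto cells, proteins quantified by TMT10plex mass spectrometry, three biological replicates, mitosis taken 0.5 h after nocodazole release, G1/S directly after double thymidine block.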

Sequence of CSNK2B (chain, as listed by the source): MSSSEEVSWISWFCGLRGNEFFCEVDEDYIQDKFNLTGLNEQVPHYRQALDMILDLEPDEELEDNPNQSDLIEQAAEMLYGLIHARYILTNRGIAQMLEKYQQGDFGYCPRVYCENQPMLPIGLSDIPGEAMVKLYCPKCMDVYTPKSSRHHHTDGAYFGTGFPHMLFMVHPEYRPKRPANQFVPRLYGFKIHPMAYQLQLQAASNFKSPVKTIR

Substance	solubility change mitosis (log2) (HeLa Kyoto [1])	solubility in G1/S (log2) (HeLa Kyoto [2])	melting temperature (HeLa Kyoto [3]; cell cycle stage: G1/S) [°C]	melting temperature (HeLa Kyoto [3]; cell cycle stage: mitosis) [°C]	thermal stability score (HeLa Kyoto [4]; [5])	thermal stability score (HeLa Kyoto [4]; cell cycle stage: mitosis)
MAASEVAGVVANAPSPPESSSLCASKSDEGLPDGLSTKDSAQKQKNSPLLSVSSQTITKENNRNVHLEHSEQNPGSSAGDTSAAHQVVLGENLIATALCLSGSGSQSDLKDVASTAGEEGDTSLRESLHPVTRSLKAGCHTKQLASRNCSEEKSPQTSILKEGNRDTSLDFRPVVSPANGVEGVRVDQDDDQDSSSLKLSQNIAVQTDFKTADSEVNTDQDIEKNLDKMMTERTLLKERYQEVLDKQRQVENQLQVQLKQLQQRREEEMKNHQEILKAIQDVTIKREETKKKIEKEKKEFLQKEQDLKAEIEKLCEKGRREVWEMELDRLKNQDGEINRNIMEETERAWKAEILSLESRKELLVLKLEEAEKEAELHLTYLKSTPPTLETVRSKQEWETRLNGVRIMKKNVRDQFNSHIQLVRNGAKLSSLPQIPTPTLPPPPSETDFMLQVFQPSPSLAPRMPFSIGQVTMPMVMPSADPRSLSFPILNPALSQPSQPSSPLPGSHGRNSPGLGSLVSPHGPHMPPAASIPPPPGLGGVKASAETPRPQPVDKLEKILEKLLTRFPQCNKAQMTNILQQIKTARTTMAGLTMEELIQLVAARLAEHERVAASTQPLGRIRALFPAPLAQISTPMFLPSAQVSYPGRSSHAPATCKLCLMCQKLVQPSELHPMACTHVLHKECIKFWAQTNTNDTCPFCPTLK [RNF214]	-0.0773	0.486	49.8	51.5	-0.221	-0.95
INADL	-0.068	-0.0157	47.4	49.2	0.59	1.68
DOCK10	-0.143	-0.189	52.3	51.8	-1.12	-0.873
MTDQAFVTLTTNDAYAKGALVLGSSLKQHRTTRRLVVLATPQVSDSMRKVLETVFDEVIMVDVLDSGDSAHLTLMKRPELGVTLTKLHCWSLTQYSKCVFMDADTLVLANIDDLFDREELSAAPDPGWPDCFNSGVFVYQPSVETYNQLLHLASEQGSFDGGDQGILNTFFSSWATTDIRKHLPFIYNLSSISIYSYLPAFKVFGASAKVVHFLGRVKPWNYTYDPKTKSVKSEAHDPNMTHPEFLILWWNIFTTNVLPLLQQFGLVKDTCSYVNVLSDLVYTLAFSCGFCRKEDVSGAISHLSLGEIPAMAQPFVSSEERKERWEQGQADYMGADSFDNIKRKLDTYLQ [GYG1]	-0.149	0.0958	56.3	52.1	-3.5	-5.58
MASEQDVRARLQRAGQEHLLRFWAELAPEPRAALLAELALLEPEALREHCRRAAEACARPHGPPPDLAARLRPLPPERVGRASRSDPETRRRWEEEGFRQISLNKVAVLLLAGGQGTRLGVTYPKGMYRVGLPSRKTLYQLQAERIRRVEQLAGERHGTRCTVPWYVMTSEFTLGPTAEFFREHNFFHLDPANVVMFEQRLLPAVTFDGKVILERKDKVAMAPDGNGGLYCALEDHKILEDMERRGVEFVHVYCVDNILVRLADPVFIGFCVLQGADCGAKVVEKAYPEEPVGVVCQVDGVPQVVEYSEISPETAQLRASDGSLLYNAGNICNHFFTRGFLKAVTREFEPLLKPHVAVKKVPYVDEEGNLVKPLKPNGIKMEKFVFDVFRFAKNFAALEVLREEEFSPLKNAEPADRDSPRTARQALLTQHYRWALRAGARFLDAHGAWLPELPSLPPNGDPPAICEISPLVSYSGEGLEVYLQGREFQSPLILDEDQAREPQLQES [UAP1L1]	-0.0981	0.127	52.3	53.1	-0.582	-0.781
MSSRKSKSNSLIHTECLSQVQRILRERFCRQSPHSNLFGVQVQYKHLSELLKRTALHGESNSVLIIGPRGSGKTMLINHALKELMEIEEVSENVLQVHLNGLLQINDKIALKEITRQLNLENVVGDKVFGSFAENLSFLLEALKKGDRTSSCPVIFILDEFDLFAHHKNQTLLYNLFDISQSAQTPIAVIGLTCRLDILELLEKRVKSRFSHRQIHLMNSFGFPQYVKIFKEQLSLPAEFPDKVFAEKWNENVQYLSEDRSVQEVLQKHFNISKNLRSLHMLLMLALNRVTASHPFMTAVDLMEASQLCSMDSKANIVHGLSVLEICLIIAMKHLNDIYEEEPFNFQMVYNEFQKFVQRKAHSVYNFEKPVVMKAFEHLQQLELIKPMERTSGNSQREYQLMKLLLDNTQIMNALQKYPNCPTDVRQWATSSLSWL [ORC4]	-0.248	0.194	48.8	49.6	1.97	2.38
MEGGGGRDEPSACRAGDVNMDDPKKEDILLLADEKFDFDLSLSSSSANEDDEVFFGPFGHKERCIAASLELNNPVPEQPPLPTSESPFAWSPLAGEKFVEVYKEAHLLALHIESSSRNQAAQAAKPEDPRSQGVERFIQESKLKINLFEKEKEMKKSPTSLKRETYYLSDSPLLGPPVGEPRLLASSPALPSSGAQARLTRAPGPPHSAHALPRESCTAHAASQAATQRKPGTKLLLPRAASVRGRSIPGAAEKPKKEIPASPSRTKIPAEKESHRDVLPDKPAPGAVNVPAAGSHLGQGKRAIPVPNKLGLKKTLLKAPGSTSNLARKSSSGPVWSGASSACTSPAVGKAKSSEFASIPANSSRPLSNISKSGRMGPAMLRPALPAGPVGASSWQAKRVDVSELAAEQLTAPPSASPTQPQTPEGGGQWLNSSCAWSESSQLNKTRSIRRRDSCLNSKTKVMPTPTNQFKIPKFSIGDSPDSSTPKLSRAQRPQSCTSVGRVTVHSTPVRRSSGPAPQSLLSAWRVSALPTPASRRCSGLPPMTPKTMPRAVGSPLCVPARRRSSEPRKNSAMRTEPTRESNRKTDSRLVDVSPDRGSPPSRVPQALNFSPEESDSTFSKSTATEVAREEAKPGGDAAPSEALLVDIKLEPLAVTPDAASQPLIDLPLIDFCDTPEAHVAVGSESRPLIDLMTNTPDMNKNVAKPSPVVGQLIDLSSPLIQLSPEADKENVDSPLLKF [GTSE1]	0.505	0.351	49	50.3	0.104	-0.0609
WDR48	-0.036	-0.162	52.5	53.9	3.81	2.36
MSELEQLRQEAEQLRNQIQDARKACNDATLVQITSNMDSVGRIQMRTRRTLRGHLAKIYAMHWGYDSRLLVSASQDGKLIIWDSYTTNKMHAIPLRSSWVMTCAYAPSGNYVACGGLDNICSIYNLKTREGNVRVSRELPGHTGYLSCCRFLDDSQIVTSSGDTTCALWDIETAQQTTTFTGHSGDVMSLSLSPDMRTFVSGACDASSKLWDIRDGMCRQSFTGHVSDINAVSFFPNGYAFATGSDDATCRLFDLRADQELLLYSHDNIICGITSVAFSKSGRLLLAGYDDFNCNVWDTLKGDRAGVLAGHDNRVSCLGVTDDGMAVATGSWDSFLRIWN [GNB4]	-0.13	-0.287	55.6	56.7	-1.5	-0.567
MPAGPVQAVPPPPPVPTEPKQPTEEEASSKEDSAPSKPVVGIIYPPPEVRNIVDKTASFVARNGPEFEARIRQNEINNPKFNFLNPNDPYHAYYRHKVSEFKEGKAQEPSAAIPKVMQQQQQTTQQQLPQKVQAQVIQETIVPKEPPPEFEFIADPPSISAFDLDVVKLTAQFVARNGRQFLTQLMQKEQRNYQFDFLRPQHSLFNYFTKLVEQYTKILIPPKGLFSKLKKEAENPREVLDQVCYRVEWAKFQERERKKEEEEKEKERVAYAQIDWHDFVVVETVDFQPNEQGNFPPPTTPEELGARILIQERYEKFGESEEVEMEVESDEEDDKQEKAEEPPSQLDQDTQVQDMDEGSDDEEEGQKVPPPPETPMPPPLPPTPDQVIVRKDYDPKASKPLPPAPAPDEYLVSPITGEKIPASKMQEHMRIGLLDPRWLEQRDRSIREKQSDDEVYAPGLDIESSLKQLAERRTDIFGVEETAIGKKIGEEEIQKPEEKVTWDGHSGSMARTQQAAQANITLQEQIEAIHKAKGLVPEDDTKEKIGPSKPNEIPQQPPPPSSATNIPSSAPPITSVPRPPTMPPPVRTTVVSAVPVMPRPPMASVVRLPPGSVIAPMPPIIHAPRINVVPMPPSAPPIMAPRPPPMIVPTAFVPAPPVAPVPAPAPMPPVHPPPPMEDEPTSKKLKTEDSLMPEEEFLRRNKGPVSIKVQVPNMQDKTEWKLNGQVLVFTLPLTDQVSVIKVKIHEATGMPAGKQKLQYEGIFIKDSNSLAYYNMANGAVIHLALKERGGRKK [SF3A1]	0.18	-0.0723	49.8	50.2	-0.95	1.92
MAAETRNVAGAEAPPPQKRYYRQRAHSNPMADHTLRYPVKPEEMDWSELYPEFFAPLTQNQSHDDPKDKKEKRAQAQVEFADIGCGYGGLLVELSPLFPDTLILGLEIRVKVSDYVQDRIRALRAAPAGGFQNIACLRSNAMKHLPNFFYKGQLTKMFFLFPDPHFKRTKHKWRIISPTLLAEYAYVLRVGGLVYTITDVLELHDWMCTHFEEHPLFERVPLEDLSEDPVVGHLGTSTEEGKKVLRNGGKNFPAIFRRIQDPVLQAVTSQTSLPGH [METTL1]	-0.075	0.231	52.4	54.7	0.937	2.85
MGCAPSIHVSQSGVIYCRDSDESSSPRQTTSVSQGPAAPLPGLFVQTDAADAIPPSRASGPPSVARVRRARTELGSGSSAGSAAPAATTSRGRRRHCCSSAEAETQTCYTSVKQVSSAEVRIGPMRLTQDPIQVLLIFAKEDSQSDGFWWACDRAGYRCNIARTPESALECFLDKHHEIIVIDHRQTQNFDAEAVCRSIRATNPSEHTVILAVVSRVSDDHEEASVLPLLHAGFNRRFMENSSIIACYNELIQIEHGEVRSQFKLRACNSVFTALDHCHEAIEITSDDHVIQYVNPAFERMMGYHKGELLGKELADLPKSDKNRADLLDTINTCIKKGKEWQGVYYARRKSGDSIQQHVKITPVIGQGGKIRHFVSLKKLCCTTDNNKQIHKIHRDSGDNSQTEPHSFRYKNRRKESIDVKSISSRGSDAPSLQNRRYPSMARIHSMTIEAPITKVINIINAAQENSPVTVAEALDRVLEILRTTELYSPQLGTKDEDPHTSDLVGGLMTDGLRRLSGNEYVFTKNVHQSHSHLAMPITINDVPPCISQLLDNEESWDFNIFELEAITHKRPLVYLGLKVFSRFGVCEFLNCSETTLRAWFQVIEANYHSSNAYHNSTHAADVLHATAFFLGKERVKGSLDQLDEVAALIAATVHDVDHPGRTNSFLCNAGSELAVLYNDTAVLESHHTALAFQLTVKDTKCNIFKNIDRNHYRTLRQAIIDMVLATEMTKHFEHVNKFVNSINKPMAAEIEGSDCECNPAGKNFPENQILIKRMMIKCADVANPCRPLDLCIEWAGRISEEYFAQTDEEKRQGLPVVMPVFDRNTCSIPKSQISFIDYFITDMFDAWDAFAHLPALMQHLADNYKHWKTLDDLKCKSLRLPSDS [PDE8B]	-0.122	-0.134	49	49.1	0.505	0.304
MAGSVADSDAVVKLDDGHLNNSLSSPVQADVYFPRLIVPFCGHIKGGMRPGKKVLVMGIVDLNPESFAISLTCGDSEDPPADVAIELKAVFTDRQLLRNSCISGERGEEQSAIPYFPFIPDQPFRVEILCEHPRFRVFVDGHQLFDFYHRIQTLSAIDTIKINGDLQITKLG [LGALSL]	-0.16	0.36	53.3	54	0.0977	-0.222
CSNK2B	0.0236	0.227	50.8	51.1	0.696	0.623
